What was measured:
[1] = target: MDA-modified bovine serum albumin (bovine) (UniProt P02769); assay: ELISA; plasma added to coated MDA-BSA; bound CFH/FHL-1 detected with a monoclonal antibody that recognizes SCR5; read-out RLU/100 ms
[2] = target: MDA-modified bovine serum albumin (bovine) (UniProt P02769); assay: MST; microscale thermophoresis with both binding partners in fluid phase

complement factor H and its splice variant factor H-like protein 1 in plasma (study cohorts, all rs1061170 genotypes), sequence (P08603 19-1231, change not shown): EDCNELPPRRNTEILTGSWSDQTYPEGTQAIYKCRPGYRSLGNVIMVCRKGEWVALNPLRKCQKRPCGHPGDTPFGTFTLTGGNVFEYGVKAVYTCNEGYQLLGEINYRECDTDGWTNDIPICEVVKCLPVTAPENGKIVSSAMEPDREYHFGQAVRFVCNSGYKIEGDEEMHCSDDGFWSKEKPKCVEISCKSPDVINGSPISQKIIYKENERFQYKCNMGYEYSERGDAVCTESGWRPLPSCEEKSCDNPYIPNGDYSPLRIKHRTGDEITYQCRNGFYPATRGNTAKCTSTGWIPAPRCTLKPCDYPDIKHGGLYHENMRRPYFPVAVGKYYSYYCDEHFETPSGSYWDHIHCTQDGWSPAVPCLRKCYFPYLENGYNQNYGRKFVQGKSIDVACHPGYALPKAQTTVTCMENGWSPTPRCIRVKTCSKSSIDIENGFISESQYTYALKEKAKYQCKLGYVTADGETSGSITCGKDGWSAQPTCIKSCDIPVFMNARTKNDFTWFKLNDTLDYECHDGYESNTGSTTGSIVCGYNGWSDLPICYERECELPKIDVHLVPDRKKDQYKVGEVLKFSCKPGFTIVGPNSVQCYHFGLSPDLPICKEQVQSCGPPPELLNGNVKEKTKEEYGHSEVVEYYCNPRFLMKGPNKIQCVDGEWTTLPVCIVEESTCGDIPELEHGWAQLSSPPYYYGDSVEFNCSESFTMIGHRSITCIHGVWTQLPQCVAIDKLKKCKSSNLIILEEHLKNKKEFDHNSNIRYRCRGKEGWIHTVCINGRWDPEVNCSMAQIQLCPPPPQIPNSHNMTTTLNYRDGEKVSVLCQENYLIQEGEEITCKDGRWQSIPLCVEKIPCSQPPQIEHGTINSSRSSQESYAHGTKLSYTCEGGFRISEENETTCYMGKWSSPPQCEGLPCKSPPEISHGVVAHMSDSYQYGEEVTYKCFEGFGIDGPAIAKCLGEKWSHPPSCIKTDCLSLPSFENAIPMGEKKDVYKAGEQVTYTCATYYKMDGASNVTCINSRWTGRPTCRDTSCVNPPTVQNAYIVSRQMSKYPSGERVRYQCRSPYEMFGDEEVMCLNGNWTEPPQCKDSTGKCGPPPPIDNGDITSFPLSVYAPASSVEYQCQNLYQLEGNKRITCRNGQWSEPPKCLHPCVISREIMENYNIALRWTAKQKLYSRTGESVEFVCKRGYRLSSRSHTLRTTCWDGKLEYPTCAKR
MDA-modified bovine serum albumin (bovine), sequence (P02769 25-607): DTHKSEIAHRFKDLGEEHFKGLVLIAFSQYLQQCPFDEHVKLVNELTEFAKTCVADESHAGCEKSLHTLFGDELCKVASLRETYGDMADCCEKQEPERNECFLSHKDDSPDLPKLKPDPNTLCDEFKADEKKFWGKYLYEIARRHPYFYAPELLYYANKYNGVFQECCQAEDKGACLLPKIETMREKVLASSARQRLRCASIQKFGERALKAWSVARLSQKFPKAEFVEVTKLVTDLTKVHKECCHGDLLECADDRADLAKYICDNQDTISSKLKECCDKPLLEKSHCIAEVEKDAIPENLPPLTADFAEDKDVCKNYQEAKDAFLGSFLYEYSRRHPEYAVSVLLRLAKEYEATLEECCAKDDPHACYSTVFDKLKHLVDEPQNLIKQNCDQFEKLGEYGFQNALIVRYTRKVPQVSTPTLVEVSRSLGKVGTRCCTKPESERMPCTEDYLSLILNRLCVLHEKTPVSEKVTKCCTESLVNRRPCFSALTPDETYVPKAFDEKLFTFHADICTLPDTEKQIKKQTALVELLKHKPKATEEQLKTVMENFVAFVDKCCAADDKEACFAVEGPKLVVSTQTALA

Row | Substance | binding to MDA-BSA, median of healthy individuals (n = 934) [1] | binding to MDA-BSA, median of patients with major depression (n = 896) [1] | binding to MDA-BSA, median of the integrated cohort (n = 1,830) [1] | Kd [2]
1 | complement factor H and its splice variant factor H-like protein 1 in plasma (study cohorts, all rs1061170 genotypes) (from UniProt P08603 19-1231) (natural protein) | 24200 RLU/100 ms | 24800 RLU/100 ms | 24600 RLU/100 ms | 
2 | recombinant complement factor H-related protein 3 (from UniProt Q02985 19-330) (natural protein) |  |  |  | 3.48 µM
3 | recombinant complement factor H-related protein 1 (from UniProt Q03591 19-330) (natural protein) |  |  |  | 0.86 µM
